Reference: patent publication US20250066745A1, “MUTANTS AND USE THEREOF” (BGI SHENZHEN, priority 2021, published 2025)
Positions count from the first letter of the chain named. Names and notes keep the numbering of the source.

B1: F26R N27D V29C A30G V31L A32D S33V A36V T37S: Gaussia luciferase mutant (protein)
chain: MGVKVLFALICIAVAEAKPTENNEDRDICGLDVNFVSTDLDADRGKLPGKKLPLEVLKEMEANARKAGCTRGCLICLSHIKCTPKMKKFIPGRCHTYEGDKESAQGGIGEAIVDIPEIPGFKDLEPMEQFIAQVDLCVDCTTGCLKGLANVQCSDLLKKWLPQRCATFASKIQGQVDKIKGAGGD
modifications: SIGNAL (1)..(17)
notes: Gaussia luciferase mutant
B2: F26T N27N V29E V31I A32G S33V A36R T37G L40G: Gaussia luciferase mutant (protein)
chain: B1 chain with R26T, D27N, C29E, G30A, L31I, D32G, V36R, S37G, L40G
modifications: SIGNAL (1)..(17)
notes: Gaussia luciferase mutant
B3: F26R V29D A30G A32D A36I T37A L40R: Gaussia luciferase mutant (protein)
chain: B1 chain with D27N, C29D, L31V, V33S, V36I, S37A, L40R
modifications: SIGNAL (1)..(17)
notes: Gaussia luciferase mutant
B4: F26R V29R A30V V31L S33G A36V T37R: Gaussia luciferase mutant (protein)
chain: B1 chain with D27N, C29R, G30V, D32A, V33G, S37R
modifications: SIGNAL (1)..(17)
notes: Gaussia luciferase mutant
B5: F26S V29L A30G S33R T37K L40A: Gaussia luciferase mutant (protein)
chain: B1 chain with R26S, D27N, C29L, L31V, D32A, V33R, V36A, S37K, L40A
modifications: SIGNAL (1)..(17)
notes: Gaussia luciferase mutant
B6: F26R V29F A30D V31L S33G T37D L40A: Gaussia luciferase mutant (protein)
chain: B1 chain with D27N, C29F, G30D, D32A, V33G, V36A, S37D, L40A
modifications: SIGNAL (1)..(17)
notes: Gaussia luciferase mutant
B7: N27D V29S V31L A32V S33G A36N T37D L40R: Gaussia luciferase mutant (protein)
chain: B1 chain with R26F, C29S, G30A, D32V, V33G, V36N, S37D, L40R
modifications: SIGNAL (1)..(17)
notes: Gaussia luciferase mutant
B8: N27D V29E A30G V31I A32V S33K A36I T37D L40T: Gaussia luciferase mutant (protein)
chain: B1 chain with R26F, C29E, L31I, D32V, V33K, V36I, S37D, L40T
modifications: SIGNAL (1)..(17)
notes: Gaussia luciferase mutant
B9: K66N H79K P84L S103T E110A D123N L124M E128G V138E: Gaussia luciferase mutant (protein)
chain: MGVKVLFALICIAVAEAKPTENNEDFNIVAVASNFATTDLDADRGKLPGKKLPLEVLKEMEANARNAGCTRGCLICLSKIKCTLKMKKFIPGRCHTYEGDKETAQGGIGAAIVDIPEIPGFKNMEPMGQFIAQVDLCEDCTTGCLKGLANVQCSDLLKKWLPQRCATFASKIQGQVDKIKGAGGD
modifications: SIGNAL (1)..(17)
notes: Gaussia luciferase mutant
B10: P84A E102S S103T A104G E110A L124M V138E: Gaussia luciferase mutant (protein)
chain: B9 chain with N66K, K79H, L84A, E102S, A104G, N123D, G128E
modifications: SIGNAL (1)..(17)
notes: Gaussia luciferase mutant
B11: K66R P84A E102S S103I A104G E110A L124M V138E: Gaussia luciferase mutant (protein)
chain: B9 chain with N66R, K79H, L84A, E102S, T103I, A104G, N123D, G128E
modifications: SIGNAL (1)..(17)
notes: Gaussia luciferase mutant
B12: K66R P84A E102A S103I A104G E110A: Gaussia luciferase mutant (protein)
chain: B9 chain with N66R, K79H, L84A, E102A, T103I, A104G, N123D, M124L, G128E, E138V
modifications: SIGNAL (1)..(17)
notes: Gaussia luciferase mutant
B13: K66R P84L E102D S103T E110A V138E: Gaussia luciferase mutant (protein)
chain: B9 chain with N66R, K79H, E102D, N123D, M124L, G128E
modifications: SIGNAL (1)..(17)
notes: Gaussia luciferase mutant
B14: K66R E102K E110G D123N V138D: Gaussia luciferase mutant (protein)
chain: B9 chain with N66R, K79H, L84P, E102K, T103S, A110G, M124L, G128E, E138D
modifications: SIGNAL (1)..(17)
notes: Gaussia luciferase mutant
B15: P84A E102A S103T E110A V138D: Gaussia luciferase mutant (protein)
chain: B9 chain with N66K, K79H, L84A, E102A, N123D, M124L, G128E, E138D
modifications: SIGNAL (1)..(17)
notes: Gaussia luciferase mutant
B16: K66R E102D E110P V138D: Gaussia luciferase mutant (protein)
chain: B9 chain with N66R, K79H, L84P, E102D, T103S, A110P, N123D, M124L, G128E, E138D
modifications: SIGNAL (1)..(17)
notes: Gaussia luciferase mutant
B17: K66N P84L E102K E110P D123N: Gaussia luciferase mutant (protein)
chain: B9 chain with K79H, E102K, T103S, A110P, M124L, G128E, E138V
modifications: SIGNAL (1)..(17)
notes: Gaussia luciferase mutant
B18: A42G Q152K S170S G174N Q175E K178S A182Y G183A: Gaussia luciferase mutant (protein)
chain: MGVKVLFALICIAVAEAKPTENNEDFNIVAVASNFATTDLDGDRGKLPGKKLPLEVLKEMEANARKAGCTRGCLICLSHIKCTPKMKKFIPGRCHTYEGDKESAQGGIGEAIVDIPEIPGFKDLEPMEQFIAQVDLCVDCTTGCLKGLANVKCSDLLKKWLPQRCATFASKIQNEVDSIKGYAGD
modifications: SIGNAL (1)..(17)
notes: Gaussia luciferase mutant

Experiments:
[1] = Luminescence activity assay of purified Gaussia luciferase mutants on coelenterazine; assay type: biochemical; parameters: key to Activity of mutant relative to wild-type Gaussia luciferase without the signal peptide: ratio of mutant luminescence intensity to wild-type Gaussia luciferase; conditions: Substrate CTZ (Table 16)
Protocol: (§1) In this Example, the protein concentration was determined with a BCA quantitative kit (Thermo Scientific™ Pierce™ BCA Protein Assay Kit) accurately. The purified luciferase obtained in Example 5 was diluted with diluent (50 mM Tris-HCl, pH 8.0, 100 mM NaCl, 0.1% (v/v) Tween-20) to 1 μg/mL. The diluted luciferase, taken for 10 μL, was moved into a black 96-well plate, then added with 90 μL of the substrates coelenterazine, fluoro-coelenterazine or coelenterazine derivative ZS2 (purchased from Biolab) which was diluted into 100 μM with the same diluent, and the luminescence intensity of the plate was read with a self-luminescence module of a microplate reader. The mutation site of the mutant, the measured luminescence intensity, the ratio of luminescence intensities of the advantageous mutants to the wild-type Gaussia luciferase without the signal peptide having the sequence shown in SEQ ID NO: 3 are shown in Table 15. The results of catalytic activity assay of the advantageous mutants relative to the wild-type Gaussia luciferase without the signal peptide having the sequence shown in SEQ ID NO: 3 on substrate coelenterazine are shown in FIG. 6. […] The results of catalytic activity assay of the advantageous mutants relative to the wild-type Gaussia luciferase without the signal peptide having the sequence shown in SEQ ID NO: 3 on substrate fluoro-coelenterazine are shown in FIG. 7.
(§2) The new mutant library constructed in Example 7 was screened and tested for substrate specificity. Expression and purification schemes were the same as that in Example 5, and the activity assay scheme was the same as that in Example 6. The respective catalytic activities of combinatorial mutants on coelenterazine, fluoro-coelenterazine or coelenterazine derivative ZS2, and coelenterazine derivative ZS26 (purchased from BIOLAB) were assayed, and comparisons among the substrate specificities of the combinatorial mutants were based on the ratios of catalytic activities on two corresponding substrates.

[2] = Luminescence activity assay of purified Gaussia luciferase mutants on coelenterazine derivative ZS2; assay type: biochemical; parameters: key to Activity of mutant relative to wild-type Gaussia luciferase without the signal peptide: ratio of mutant luminescence intensity to wild-type Gaussia luciferase; conditions: Substrate ZS2 (Table 16)
Protocol: as §1, §2

Molecule | Activity of mutant relative to wild-type Gaussia luciferase without the signal peptide [1] | Activity of mutant relative to wild-type Gaussia luciferase without the signal peptide [2]
B1 | 1.308 | 0.128
B2 | 0.940 | 1.995
B3 | 0.453 | 2.460
B4 | 0.423 | 0.115
B5 | 1.067 | 0.787
B6 | 1.017 | 1.781
B7 | 0.981 | 0.146
B8 | 0.779 | 1.379
B9 | 1.111 | 1.709
B10 | 0.375 | 4.457
B11 | 1.302 | 0.587
B12 | 0.122 | 1.209
B13 | 0.626 | 3.079
B14 | 1.000 | 1.611
B15 | 0.174 | 4.252
B16 | 0.674 | 1.560
B17 | 0.172 | 0.112
B18 | 0.736 | 1.751
